According to the Human Domainome abundance scans (Beltran et al. 2025):
± gives the uncertainty stated by the source.

B1: POU domain, class 4, transcription factor 2, residues 256 to 327; numbered along this chain, Q12837 (parent)
chain: RDLEAFAERFKQRRIKLGVTQADVGSALANLKIPGVGSLSQSTICRFESLTLSHNNMIALKPILQAWLEEAE

Variants of: B1
Experiment: abundance fitness (aPCA) (normalised: wild type 0, dead -1); higher = more abundant; growth selection in yeast, the domain comes from the species named
Conditions: Homo sapiens

Variant	abundance fitness
RDLEAFAERFKQRRIKLGVTQADVGSALANLKIPGVGSLSQSTICRFESLTLSHNNMIALMPILQAWLEEAE [K61M]	0.037 ± 0.093
RDLEAFAERFKQRRIKLGVTQADVGSALANLKIPGVGSLSQSTICRFESLTLSHNNMIALPPILQAWLEEAE [K61P]	-0.802 ± 0.17
RDLEAFAERFKQRRIKLGVTQADVGSALANLKIPGVGSLSQSTICRFESLTLSHNNMIALRPILQAWLEEAE [K61R]	0.049 ± 0.071
RDLEAFAERFKQRRIKLGVTQADVGSALANLKIPGVGSLSQSTICRFESLTLSHNNMIALYPILQAWLEEAE [K61Y]	-0.237 ± 0.15
RDLEAFAERFKQRRIKLGVTQADVGSALANLKIPGVGSLSQSTICRFESLTLSHNNMIALQPILQAWLEEAE [K61Q]	-0.047 ± 0.097
RDLEAFAERFKQRRIKLGVTQADVGSALANLKIPGVGSLSQSTICRFESLTLSHNNMIALLPILQAWLEEAE [K61L]	-0.148 ± 0.07
RDLEAFAERFKQRRIKLGVTQADVGSALANLKIPGVGSLSQSTICRFESLTLSHNNMIALWPILQAWLEEAE [K61W]	-0.125 ± 0.08
RDLEAFAERFKQRRIKLGVTQADVGSALANLKIPGVGSLSQSTICRFESLTLSHNNMIALTPILQAWLEEAE [K61T]	-0.02 ± 0.1
RDLEAFAERFKQRRIKLGVTQADVGSALANLKIPGVGSLSQSTICRFESLTLSHNNMIALSPILQAWLEEAE [K61S]	-0.42 ± 0.087
RDLEAFAERFKQRRIKLGVTQADVGSALANLKIPGVGSLSQSTICRFESLTLSHNNMIALNPILQAWLEEAE [K61N]	-0.393 ± 0.21
RDLEAFAERFKQRRIKLGVTQADVGSALANLKIPGVGSLSQSTICRFESLTLSHNNMIALKPILRAWLEEAE [Q65R]	-0.37 ± 0.079
RDLEAFAERFKQRRIKLGVTQADVGSALANLKIPGVGSLSQSTICRFESLTLSHNNMIALKPILSAWLEEAE [Q65S]	-0.028 ± 0.058
RDLEAFAERFKQRRIKLGVTQADVGSALANLKIPGVGSLSQSTICRFESLTLSHNNMIALKPILEAWLEEAE [Q65E]	0.058 ± 0.092
RDLEAFAERFKQRRIKLGVTQADVGSALANLKIPGVGSLSQSTICRFESLTLSHNNMIALKPILFAWLEEAE [Q65F]	-0.369 ± 0.071
RDLEAFAERFKQRRIKLGVTQADVGSALANLKIPGVGSLSQSTICRFESLTLSHNNMIALKPILDAWLEEAE [Q65D]	-0.186 ± 0.28
RDLEAFAERFKQRRIKLGVTQADVGSALANLKIPGVGSLSQSTICRFESLTLSHNNMIALKPILCAWLEEAE [Q65C]	-0.132 ± 0.14
RDLEAFAERFKQRRIKLGVTQADVGSALANLKIPGVGSLSQSTICRFESLTLSHNNMIALKPILKAWLEEAE [Q65K]	-0.074 ± 0.076
RDLEAFAERFKQRRIKLGVTQADVGSALANLKIPGVGSLSQSTICRFESLTLSHNNMIALKPILIAWLEEAE [Q65I]	-0.502 ± 0.2
RDLEAFAERFKQRRIKLGVTQADVGSALANLKIPGVGSLSQSTICRFESLTLSHNNMIALKPILPAWLEEAE [Q65P]	-0.528 ± 0.081
RDLEAFAERFKQRRIKLGVTQADVGSALANLKIPGVGSLSQSTICRFESLTLSHNNMIALKPILGAWLEEAE [Q65G]	-0.106 ± 0.043
RDLEAFAERFKQRRIKLGVTQADVGSALANLKIPGVGSLSQSTICRFESLTLSHNNMIALKPILAAWLEEAE [Q65A]	-0.084 ± 0.052
RDLEAFAERFKQRRIKLGVTQADVGSALANLKIPGVGSLSQSTICRFESLTLSHNNMIALKPILMAWLEEAE [Q65M]	-0.235 ± 0.099
RDLEAFAERFKQRRIKLGVTQADVGSALANLKIPGVGSLSQSTICRFESLTLSHNNMIALKPILNAWLEEAE [Q65N]	-0.309 ± 0.15
RDLEAFAERFKQRRIKLGVTQADVGSALANLKIPGVGSLSQSTICRFESLTLSHNNMIALKPTLQAWLEEAE [I63T]	-0.098 ± 0.09
RDLEAFAERFKQRRIKLGVTQADVGSALANLKIPGVGSLSQSTICRFESLTLSHNNMIALKPGLQAWLEEAE [I63G]	-0.414 ± 0.07

Variant	abundance fitness
RDLEAFAERFKQRRIKLGVTQADVGSALANLKIPGVGSLSQSTICRFESLTLSHNNMIALKPPLQAWLEEAE [I63P]	-0.329 ± 0.052
RDLEAFAERFKQRRIKLGVTQADVGSALANLKIPGVGSLSQSTICRFESLTLSHNNMIALKPFLQAWLEEAE [I63F]	0.164 ± 0.31
RDLEAFAERFKQRRIKLGVTQADVGSALANLKIPGVGSLSQSTICRFESLTLSHNNMIALKPNLQAWLEEAE [I63N]	-0.628 ± 0.33
RDLEAFAERFKQRRIKLGVTQADVGSALANLKIPGVGSLSQSTICRFESLTLSHNNMIALKPDLQAWLEEAE [I63D]	-0.438 ± 0.12
RDLEAFAERFKQRRIKLGVTQADVGSALANLKIPGVGSLSQSTICRFESLTLSHNNMIALKPMLQAWLEEAE [I63M]	-0.382 ± 0.18
RDLEAFAERFKQRRIKLGVTQADVGSALANLKIPGVGSLSQSTICRFESLTLSHNNMIALKPHLQAWLEEAE [I63H]	0.07 ± 0.084
RDLEAFAERFKQRRIKLGVTQADVGSALANLKIPGVGSLSQSTICRFESLTLSHNNMIALKPCLQAWLEEAE [I63C]	-0.231 ± 0.25
RDLEAFAERFKQRRIKLGVTQADVGSALANLKIPGVGSLSQSTICRFESLTLSHNNMIALKPQLQAWLEEAE [I63Q]	-0.489 ± 0.14
RDLEAFAERFKQRRIKLGVTQADVGSALANLKIPGVGSLSQSTICRFESLTLSHNNMIALKPSLQAWLEEAE [I63S]	-0.224 ± 0.033
RDLEAFAERFKQRRIKLGVTQADVGSALANLKIPGVGSLSQSTICRFESLTLSHNNMIALKPRLQAWLEEAE [I63R]	-0.314 ± 0.047
RDLEAFAERFKQRRIKLGVTQADVGSALANLKIPGVGSLSQSTICRFESLTLSHNNMIALKPKLQAWLEEAE [I63K]	-0.495 ± 0.18
RDLEAFAERFKQRRIKLGVTQADVGSALANLKIPGVGSLSQSTICRFESLTLSHNNMIALKPLLQAWLEEAE [I63L]	-0.217 ± 0.057
RDLEAFAERFKQRRIKLGVTQADVGSALANLKIPGVGSLSQSTICRFESLTLSHNNMIALKPALQAWLEEAE [I63A]	-0.03 ± 0.077
RDLEAFAERFKQRRIKLGVTQADVGSALANLKIPGVGSLSQSTICRFESLTLSHNNMIALKPWLQAWLEEAE [I63W]	-0.443 ± 0.25
RDLEAFAERFKQRRIKLGVTQADVGSALANLKIPGVGSLSQSTICRFESLTLSHNNMIALKPELQAWLEEAE [I63E]	-0.018 ± 0.15
RDLEAFAERFKQRRIKLGVTQADVGSALANLKIPGVGSLSQSTICRFESLTLSHNNMIALKPYLQAWLEEAE [I63Y]	-0.333 ± 0.31
RDLEAFAERFKQRRIKLGVTQADVGSALANLKIPGVGSLSQSTICRFESLTLSHNNMIALKPVLQAWLEEAE [I63V]	-0.006 ± 0.035
RDLEAFAERFKQRRIKLGVTQADVGSALANLKIPGVGSLSQSTICRFESLTLSHNNMIALKPIDQAWLEEAE [L64D]	-0.6 ± 0.2
RDLEAFAERFKQRRIKLGVTQADVGSALANLKIPGVGSLSQSTICRFESLTLSHNNMIALKPIVQAWLEEAE [L64V]	-0.295 ± 0.1
RDLEAFAERFKQRRIKLGVTQADVGSALANLKIPGVGSLSQSTICRFESLTLSHNNMIALKPIMQAWLEEAE [L64M]	-0.371 ± 0.095
RDLEAFAERFKQRRIKLGVTQADVGSALANLKIPGVGSLSQSTICRFESLTLSHNNMIALKPIHQAWLEEAE [L64H]	-0.769 ± 0.21
RDLEAFAERFKQRRIKLGVTQADVGSALANLKIPGVGSLSQSTICRFESLTLSHNNMIALKPINQAWLEEAE [L64N]	-0.823 ± 0.2
RDLEAFAERFKQRRIKLGVTQADVGSALANLKIPGVGSLSQSTICRFESLTLSHNNMIALKPIKQAWLEEAE [L64K]	-0.884 ± 0.42
RDLEAFAERFKQRRIKLGVTQADVGSALANLKIPGVGSLSQSTICRFESLTLSHNNMIALKPIAQAWLEEAE [L64A]	-0.902 ± 0.2
RDLEAFAERFKQRRIKLGVTQADVGSALANLKIPGVGSLSQSTICRFESLTLSHNNMIALKPIIQAWLEEAE [L64I]	-0.394 ± 0.097

Variant	abundance fitness
RDLEAFAERFKQRRIKLGVTQADVGSALANLKIPGVGSLSQSTICRFESLTLSHNNMIALKPITQAWLEEAE [L64T]	-0.769 ± 0.13
RDLEAFAERFKQRRIKLGVTQADVGSALANLKIPGVGSLSQSTICRFESLTLSHNNMIALKPIYQAWLEEAE [L64Y]	-0.416 ± 0.33
RDLEAFAERFKQRRIKLGVTQADVGSALANLKIPGVGSLSQSTICRFESLTLSHNNMIALKPIRQAWLEEAE [L64R]	-1.08 ± 0.22
RDLEAFAERFKQRRIKLGVTQADVGSALANLKIPGVGSLSQSTICRFESLTLSHNNMIALKPIWQAWLEEAE [L64W]	-1.11 ± 0.39
RDLEAFAERFKQRRIKLGVTQADVGSALANLKIPGVGSLSQSTICRFESLTLSHNNMIALKPIPQAWLEEAE [L64P]	-0.98 ± 0.12
RDLEAFAERFKQRRIKLGVTQADVGSALANLKIPGVGSLSQSTICRFESLTLSHNNMIALKPIQQAWLEEAE [L64Q]	-0.75 ± 0.17
RDLEAFAERFKQRRIKLGVTQADVGSALANLKIPGVGSLSQSTICRFESLTLSHNNMIALKPISQAWLEEAE [L64S]	-0.669 ± 0.089
RDLEAFAERFKQRRIKLGVTQADVGSALANLKIPGVGSLSQSTICRFESLTLSHNNMIALKPIGQAWLEEAE [L64G]	-0.787 ± 0.12
RDLEAFAERFKQRRIKLGVTQADVGSALANLKIPGVGSLSQSTICRFESLTLSHNNMIALKMILQAWLEEAE [P62M]	-0.811 ± 0.29
RDLEAFAERFKQRRIKLGVTQADVGSALANLKIPGVGSLSQSTICRFESLTLSHNNMIALKKILQAWLEEAE [P62K]	-0.698 ± 0.13
RDLEAFAERFKQRRIKLGVTQADVGSALANLKIPGVGSLSQSTICRFESLTLSHNNMIALKRILQAWLEEAE [P62R]	-0.771 ± 0.12
RDLEAFAERFKQRRIKLGVTQADVGSALANLKIPGVGSLSQSTICRFESLTLSHNNMIALKNILQAWLEEAE [P62N]	-0.44 ± 0.26
RDLEAFAERFKQRRIKLGVTQADVGSALANLKIPGVGSLSQSTICRFESLTLSHNNMIALKHILQAWLEEAE [P62H]	-0.23 ± 0.2
RDLEAFAERFKQRRIKLGVTQADVGSALANLKIPGVGSLSQSTICRFESLTLSHNNMIALKGILQAWLEEAE [P62G]	-0.628 ± 0.11
RDLEAFAERFKQRRIKLGVTQADVGSALANLKIPGVGSLSQSTICRFESLTLSHNNMIALKQILQAWLEEAE [P62Q]	-0.623 ± 0.16
RDLEAFAERFKQRRIKLGVTQADVGSALANLKIPGVGSLSQSTICRFESLTLSHNNMIALKTILQAWLEEAE [P62T]	-0.533 ± 0.1
RDLEAFAERFKQRRIKLGVTQADVGSALANLKIPGVGSLSQSTICRFESLTLSHNNMIALKLILQAWLEEAE [P62L]	-0.982 ± 0.15
RDLEAFAERFKQRRIKLGVTQADVGSALANLKIPGVGSLSQSTICRFESLTLSHNNMIALKSILQAWLEEAE [P62S]	-0.465 ± 0.065
RDLEAFAERFKQRRIKLGVTQADVGSALANLKIPGVGSLSQSTICRFESLTLSHNNMIALKYILQAWLEEAE [P62Y]	-0.827 ± 0.2
RDLEAFAERFKQRRIKLGVTQADVGSALANLKIPGVGSLSQSTICRFESLTLSHNNMIALKEILQAWLEEAE [P62E]	-0.457 ± 0.093
RDLEAFAERFKQRRIKLGVTQADVGSALANLKIPGVGSLSQSTICRFESLTLSHNNMIALKFILQAWLEEAE [P62F]	-0.761 ± 0.24
RDLEAFAERFKQRRIKLGVTQADVGSALANLKIPGVGSLSQSTICRFESLTLSHNNMIALKVILQAWLEEAE [P62V]	-0.726 ± 0.11
RDLEAFAERFKQRRIKLGVTQADVGSALANLKIPGVGSLSQSTICRFESLTLSHNNMIALKIILQAWLEEAE [P62I]	-0.638 ± 0.17
RDLEAFAERFKQRRIKLGVTQADVGSALANLKIPGVGSLSQSTICRFESLTLSHNNMIALKAILQAWLEEAE [P62A]	-0.668 ± 0.082
RDLEAFAERFKQRRIKLGVTQADVGSALANLKIPGVGSLSQSTICRFESLTLSHNNMIALKDILQAWLEEAE [P62D]	-0.18 ± 0.33
